Measurements: patent publication US20140341881A1 (DERMADIS, published 2014)
Residue numbers refer to the chain shown, from its start.

Tests used:
human kallikrein 2 (hK2) [1] = target: T1, human kallikrein 2 (hK2) (human, UniProt P20151 25-261); test: cell-based or functional assay
human kallikrein hK1 = human kallikrein hK1 (human, UniProt P06870 25-262); test: cell-based or functional assay
[2] = target: T2, human chymotrypsin (Chtr) (human, UniProt P17538 19-263); test: cell-based or functional assay
T2 sequence (P17538 19-263): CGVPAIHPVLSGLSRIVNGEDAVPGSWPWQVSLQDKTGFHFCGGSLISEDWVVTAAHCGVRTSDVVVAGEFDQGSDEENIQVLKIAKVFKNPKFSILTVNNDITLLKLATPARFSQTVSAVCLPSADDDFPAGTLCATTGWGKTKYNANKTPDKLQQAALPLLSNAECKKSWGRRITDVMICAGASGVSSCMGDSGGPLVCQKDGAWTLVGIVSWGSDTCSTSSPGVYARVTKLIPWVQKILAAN

[3] = target: T3, human plasma kallikrein (PK) (human, UniProt P03952 20-638); test: cell-based or functional assay
T3 sequence (P03952 20-638 limits assumed): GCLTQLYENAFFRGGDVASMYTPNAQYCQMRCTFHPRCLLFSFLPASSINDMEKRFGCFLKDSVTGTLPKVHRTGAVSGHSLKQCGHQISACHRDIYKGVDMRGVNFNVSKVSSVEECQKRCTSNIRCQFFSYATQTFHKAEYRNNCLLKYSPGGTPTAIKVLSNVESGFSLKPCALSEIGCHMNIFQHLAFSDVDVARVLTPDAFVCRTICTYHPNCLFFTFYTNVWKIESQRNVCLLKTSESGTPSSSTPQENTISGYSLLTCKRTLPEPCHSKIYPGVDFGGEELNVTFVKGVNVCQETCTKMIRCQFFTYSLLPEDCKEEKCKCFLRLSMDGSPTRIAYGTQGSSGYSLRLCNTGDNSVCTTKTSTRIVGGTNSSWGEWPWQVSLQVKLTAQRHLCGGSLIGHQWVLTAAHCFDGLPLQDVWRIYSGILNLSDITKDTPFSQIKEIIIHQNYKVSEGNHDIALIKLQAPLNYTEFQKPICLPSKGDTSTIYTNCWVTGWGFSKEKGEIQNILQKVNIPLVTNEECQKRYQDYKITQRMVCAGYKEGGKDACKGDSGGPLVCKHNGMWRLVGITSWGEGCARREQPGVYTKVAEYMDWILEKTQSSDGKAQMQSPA

[4] = target: T4, urokinase plasminogen activator (uPA) (UniProt P00749 21-431, limits assumed); test: cell-based or functional assay
[5] = target: T5, human neutrophil elastase (HNE) (human, UniProt P08246 30-247, limits assumed); test: cell-based or functional assay
T5 sequence (looked up): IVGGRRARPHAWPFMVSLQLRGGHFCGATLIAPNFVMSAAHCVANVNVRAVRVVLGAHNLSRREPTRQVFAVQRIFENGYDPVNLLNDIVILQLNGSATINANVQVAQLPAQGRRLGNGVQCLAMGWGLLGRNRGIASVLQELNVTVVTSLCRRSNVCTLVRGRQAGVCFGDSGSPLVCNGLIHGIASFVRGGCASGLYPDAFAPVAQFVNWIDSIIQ

human kallikrein 2 (hK2) [6] = target: T1, human kallikrein 2 (hK2); test: progress curve, pseudo-first order, fluorogenic substrate
[7] = target: T2, human chymotrypsin (Chtr); test: as above
[8] = target: T3, human plasma kallikrein (PK); test: as above
[9] = target: T5, human neutrophil elastase (HNE); test: as above
human kallikrein 2 (hK2) [10] = target: T1, human kallikrein 2 (hK2); test: residual enzyme activity against [I]o/[E]o, fluorogenic substrate
[11] = target: T2, human chymotrypsin (Chtr); test: as above
[12] = target: T3, human plasma kallikrein (PK); test: as above
[13] = target: T5, human neutrophil elastase (HNE); test: as above
[14] = target: T6, human kallikrein 14 (hK14) (human, UniProt Q9P0G3 25-251, limits assumed); test: progress curve
T6 construct: range counted on GenBank AAK48524 (printed), which may differ from the UniProt numbering; also called recombinant hK14
T6 sequence (looked up): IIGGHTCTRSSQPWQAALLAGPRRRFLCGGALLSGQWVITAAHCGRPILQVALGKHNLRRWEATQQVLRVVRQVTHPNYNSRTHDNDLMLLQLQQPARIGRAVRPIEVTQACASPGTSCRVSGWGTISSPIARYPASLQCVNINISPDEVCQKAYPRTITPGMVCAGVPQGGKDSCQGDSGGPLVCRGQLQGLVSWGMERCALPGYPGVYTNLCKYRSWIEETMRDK

human kallikrein 2 (hK2) [15] = target: T1, human kallikrein 2 (hK2); test: cell-based or functional assay; remark: listed apart in the source
[16] = target: prostate specific antigen (PSA, hK3) (human, UniProt P07288 25-261); test: cell-based or functional assay
[17] = target: T2, human chymotrypsin (Chtr); test: cell-based or functional assay; remark: listed apart in the source
[18] = target: T3, human plasma kallikrein (PK); test: cell-based or functional assay; remark: listed apart in the source
[19] = target: T5, human neutrophil elastase (HNE); test: cell-based or functional assay; remark: listed apart in the source
thrombin [20] = test: cell-based or functional assay
[21] = target: T6, human kallikrein 14 (hK14); test: cell-based or functional assay
human kallikrein 4 (hK4) = human kallikrein 4 (hK4) (human, UniProt Q9Y5K2 31-254, limits assumed); test: cell-based or functional assay
Sequence of human kallikrein 4 (hK4) (Q9Y5K2 31-254 limits assumed): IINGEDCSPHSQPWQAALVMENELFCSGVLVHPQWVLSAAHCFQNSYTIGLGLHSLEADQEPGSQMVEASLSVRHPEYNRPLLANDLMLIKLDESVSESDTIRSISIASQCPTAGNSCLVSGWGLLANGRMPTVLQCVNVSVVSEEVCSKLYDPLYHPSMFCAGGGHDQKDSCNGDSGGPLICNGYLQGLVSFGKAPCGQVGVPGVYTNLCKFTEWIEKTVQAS

human kallikrein 5 (hK5) = target: T7, human kallikrein 5 (hK5) (human, UniProt Q9Y337 67-293, limits assumed); test: cell-based or functional assay
T7 sequence (looked up): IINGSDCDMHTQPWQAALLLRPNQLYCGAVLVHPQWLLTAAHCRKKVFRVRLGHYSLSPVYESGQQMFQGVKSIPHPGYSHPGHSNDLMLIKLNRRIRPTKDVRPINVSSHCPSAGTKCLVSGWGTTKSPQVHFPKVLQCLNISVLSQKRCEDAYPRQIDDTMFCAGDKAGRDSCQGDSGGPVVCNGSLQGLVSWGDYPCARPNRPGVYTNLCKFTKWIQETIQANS

human kallikrein 6 (hK6) = human kallikrein 6 (hK6) (human, UniProt Q92876 22-244); test: cell-based or functional assay
human kallikrein 8 (hK8) = target: T8, human kallikrein 8 (hK8) (human, UniProt O60259 33-260); test: cell-based or functional assay
T8 sequence (looked up): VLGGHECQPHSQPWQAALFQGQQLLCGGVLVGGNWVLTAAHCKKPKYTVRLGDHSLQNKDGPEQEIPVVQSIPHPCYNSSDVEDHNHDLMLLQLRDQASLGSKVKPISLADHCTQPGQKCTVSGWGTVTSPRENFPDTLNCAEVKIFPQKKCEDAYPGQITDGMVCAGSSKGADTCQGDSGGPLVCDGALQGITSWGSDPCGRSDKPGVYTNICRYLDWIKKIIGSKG

[22] = target: T9, human kallikrein 13 (hK13) (human, UniProt Q9UKR3 26-277, limits assumed); test: cell-based or functional assay
T9 sequence (looked up): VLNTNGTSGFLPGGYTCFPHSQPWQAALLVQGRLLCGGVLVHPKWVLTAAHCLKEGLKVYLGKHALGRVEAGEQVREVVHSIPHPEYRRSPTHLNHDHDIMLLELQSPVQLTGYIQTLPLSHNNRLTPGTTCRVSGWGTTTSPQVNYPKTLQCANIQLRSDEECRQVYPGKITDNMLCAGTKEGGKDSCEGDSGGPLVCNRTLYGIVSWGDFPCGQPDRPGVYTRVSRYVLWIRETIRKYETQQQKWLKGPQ

[23] = target: T2, human chymotrypsin (Chtr); test: cell-based or functional assay; remark: listed apart in the source
[24] = target: T3, human plasma kallikrein (PK); test: cell-based or functional assay; remark: listed apart in the source
[25] = target: T4, urokinase plasminogen activator (uPA); test: cell-based or functional assay; remark: listed apart in the source
[26] = target: T5, human neutrophil elastase (HNE); test: cell-based or functional assay; remark: listed apart in the source
thrombin [27] = test: cell-based or functional assay; remark: listed apart in the source
[28] = target: T6, human kallikrein 14 (hK14); test: cell-based or functional assay; remark: listed apart in the source
[29] = target: T6, human kallikrein 14 (hK14); test: progress curve, pseudo-first order, 37 C
Description: The association rate constants for interactions of hK14, with different inhibitors were determined under pseudo-first order conditions using the progress curve method (Morrison and Walsh, 1988). Under these conditions, a fixed amount of enzyme (2 nM) was mixed with different concentrations of inhibitor (0-80 nM) and an excess of substrate (20 μM). Reactions were performed in reaction buffer (50 mM Tris pH 7.5, 150 mM NaCl, 0.05% Triton X-100, 0.01% BSA) at 37° C. for 45 min and the rate of product formation was measured using a FLₓ800 fluorescence 96-well microplate reader (Biotek, USA) Inhibition is considered to be irreversible over the course of reaction and the progression of enzyme activity is expressed as product formation (P), beginning at a rate (vz) and is inhibited over time (t) at a first-order rate (kobs), where the rate constant is only dependent on the inhibitor concentration.
Kinetic analysis of the inhibition of human hK14 by recombinant serpins were performed under pseudo-first-order conditions using an excess of inhibitor at various molar ratios of hK14. The time-dependent inactivation of the enzyme through reaction with serpin was monitored continuously, following the decrease in the rate of substrate turnover. Progress curves for reactions with different serpin concentrations were fitted to equation 1 to calculate values describing the rate constant (kobs). The association rate constants (kₐ) were determined from the slope of kobs values versus the concentration of the hK14 inhibitors.

[30] = target: T6, human kallikrein 14 (hK14); test: residual hK14 activity against [I0]/[E0]
Procedure, shortened: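 hK14 preincubated 4 hours at 37° C with varying inhibitor concentrations in 50 mM Tris pH 7.5, 150 mM NaCl, 0.05% Triton X-100, 0.01% BSA; residual activity read with Boc-Val-Pro-Arg-AMC (ex 340/em 485 nm). SI taken as abscissa intercept of vi/v₀ versus [I₀]/[E₀] linear regression.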

[31] = target: T6, human kallikrein 14 (hK14); test: residual hK14 activity after 4 h at 37 C against [I0]/[E0]
Description: SI values of rAAT, rACT, and their variants were determined with hK14 incubating the protease with varying concentrations of inhibitor. After an incubation of 4 hours at 37° C. in reaction buffer (50 mM Tris, pH 7.5, 150 mM NaCl, 0.05% Triton X-100, 0.01% BSA), the residual activity was detected by the addition of fluorescent substrate (Boc-Val-Pro-Arg-AMC). Fluorescence was measured with excitation at 340 nm (±15) and emission at 485 nm (±10) in black 96 well plates using a microplate fluorescence reader FLₓ800 (Bio-Tek Instruments, Inc.). The SI value corresponds to the abscissa intercept of the linear regression analysis of fractional velocity (velocity of inhibited enzyme reaction (vi)/velocity of uninhibited enzyme reaction (v₀)) vs. the molar ratio of the inhibitor to enzyme ([I₀]/[E₀]).

B1: rACT8.20 (other)
chain: MRGSHHHHHHSRHPNSPLDEENLTQENQDRGTHVDLGLASANVDFAFSLYKQLVLKAPDKNVIFSPLSISTALAFLSLGAHNTTLTEILKGLKFNLTETSEAEIHQSFQHLLRTLNQSSDELQLSMGNAMFVKEQLSLLDRFTEDAKRLYGSEAFATDFQDSAAAKKLINDYVKNGTRGKITDLIKDLDSQTMMVLVNYIFFKAKWEMPFDPQDTHQSRFYLSKKKWVMVPMMSLHHLTIPYFRDEELSCTVVELKYTGNASALFILPDQDKMEEVEAMLLPETLKRWRDSLEFREIGELYLPKFSISRDYNLNDILLQLGIEEAFTSKADLSGITGARNLAVSQVVHKAVLDVFEEGTEASAATAVKITLRSRAVETRTIVRFNRPFLMIIVPTDTQNIFFMSKVTNPKQA
notes: recombinant alpha-1-antichymotrypsin (serpin) variant, RSL substrate peptide LRSRA; N-terminal His tag, E. coli TG1; also called MD820; MD 820
- INHIBITION % (human kallikrein 2 (hK2) [1]): 95%
- INHIBITION % (human kallikrein hK1): 0%
- INHIBITION % [2]: 66%
- INHIBITION % [3]: 54%
- INHIBITION % [4]: 0%
- INHIBITION % [5]: 30%
- kon (human kallikrein 2 (hK2) [6]): 1780 M⁻¹ s⁻¹
- kon [7]: 905 M⁻¹ s⁻¹
- kon [8]: 424 M⁻¹ s⁻¹
- kon [9]: 158 M⁻¹ s⁻¹
- SI (stoichiometry of inhibition) (human kallikrein 2 (hK2) [10]): 105
- SI (stoichiometry of inhibition) [11]: 134
- SI (stoichiometry of inhibition) [12]: 150
- SI (stoichiometry of inhibition) [13]: 334

B2: ACTE8 (other)
chain: B1 chain with T370L, L371Q, S373A, R374I, A375L
notes: also called rACTE8
- kon [14]: 575000 M⁻¹ s⁻¹
- Percentage inhibition (human kallikrein 2 (hK2) [15]): 100%
- Percentage inhibition [16]: 0%
- Percentage inhibition [17]: 14%
- Percentage inhibition [18]: 36%
- Percentage inhibition [19]: 0%
- Percentage inhibition (thrombin [20]): 0%
- Percentage inhibition [21]: 100%
- Percentage inhibition (human kallikrein 4 (hK4)): 100%
- Percentage inhibition (human kallikrein 5 (hK5)): 100%
- Percentage inhibition (human kallikrein 6 (hK6)): 72%
- Percentage inhibition (human kallikrein 8 (hK8)): 34%
- Percentage inhibition [22]: 0%
- % Inhibition [23]: 14%
- % Inhibition [24]: 36%
- % Inhibition [25]: 0%
- % Inhibition [26]: 0%
- % Inhibition (thrombin [27]): 0%
- % Inhibition [28]: 100%
- kon [29]: 575000 M⁻¹ s⁻¹
- SI (stoichiometry of inhibition) [30]: 1.2
- SI (stoichiometry of inhibition) [31]: 1.2
